The target of one data set is T1, Spf1p (Saccharomyces cerevisiae, UniProt P39986).
T1 construct: gene SPF1; full length with C-terminal FLAG-RGS10His tag; expressed in spf1-deleted yeast (BY4741 background), purified, re-lipidated in mixed yeast polar lipid/detergent micelles; persistent dimer seen on SDS-PAGE
T1 sequence (P39986 1-1215): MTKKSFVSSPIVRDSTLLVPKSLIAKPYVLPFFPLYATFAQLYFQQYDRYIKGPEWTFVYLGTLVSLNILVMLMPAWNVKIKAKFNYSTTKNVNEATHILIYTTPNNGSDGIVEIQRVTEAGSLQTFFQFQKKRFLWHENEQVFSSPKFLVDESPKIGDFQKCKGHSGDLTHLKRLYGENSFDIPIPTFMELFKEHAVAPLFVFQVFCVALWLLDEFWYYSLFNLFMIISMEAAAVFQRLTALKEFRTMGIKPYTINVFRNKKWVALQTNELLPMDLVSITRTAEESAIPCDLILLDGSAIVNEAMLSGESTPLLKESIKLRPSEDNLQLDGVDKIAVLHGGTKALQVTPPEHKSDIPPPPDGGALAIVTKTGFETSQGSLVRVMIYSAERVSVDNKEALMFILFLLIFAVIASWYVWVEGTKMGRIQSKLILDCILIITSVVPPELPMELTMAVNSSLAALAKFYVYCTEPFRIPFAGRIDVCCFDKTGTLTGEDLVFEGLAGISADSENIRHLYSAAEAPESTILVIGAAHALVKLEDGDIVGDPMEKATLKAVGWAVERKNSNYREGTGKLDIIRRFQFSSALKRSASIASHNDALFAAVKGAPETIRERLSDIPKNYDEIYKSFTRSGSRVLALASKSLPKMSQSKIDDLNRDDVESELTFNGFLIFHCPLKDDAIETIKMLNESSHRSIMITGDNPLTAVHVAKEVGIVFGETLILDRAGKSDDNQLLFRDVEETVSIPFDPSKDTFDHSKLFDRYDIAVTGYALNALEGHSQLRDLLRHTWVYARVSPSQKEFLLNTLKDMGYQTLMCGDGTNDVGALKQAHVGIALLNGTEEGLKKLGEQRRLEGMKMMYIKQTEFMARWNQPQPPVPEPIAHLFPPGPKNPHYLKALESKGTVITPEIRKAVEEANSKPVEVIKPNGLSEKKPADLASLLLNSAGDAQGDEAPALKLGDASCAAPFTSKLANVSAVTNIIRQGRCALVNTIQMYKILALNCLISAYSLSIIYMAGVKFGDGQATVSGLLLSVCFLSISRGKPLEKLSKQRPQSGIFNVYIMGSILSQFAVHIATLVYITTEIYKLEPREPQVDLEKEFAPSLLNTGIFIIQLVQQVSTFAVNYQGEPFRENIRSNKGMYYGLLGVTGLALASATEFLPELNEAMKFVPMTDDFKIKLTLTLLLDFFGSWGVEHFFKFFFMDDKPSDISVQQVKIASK
As to the kind of experiment: ATPase assay, phosphate release (molybdate colorimetric). It counts as biochemical. From the text:
ATPase assay, phosphate release (molybdate colorimetric) on Spf1p | Vanadate sensitivity of Spf1p in mixed YPL/OG micelles

Substrate in data set [1]: Nc1ncnc2c1ncn2[C@@H]1O[C@H](COP(=O)(O)OP(=O)(O)OP(=O)(O)O)[C@@H](O)[C@H]1O
Described as above. It counts as biochemical, Saccharomyces cerevisiae. Conditions: YPL/OG micelles (0.35% w/w OG); Mg2+; Michaelis-Menten fit. The source says:
ATPase assay, phosphate release (molybdate colorimetric) on Spf1p | ATP affinity of Spf1p in YPL/OG micelles

Data set [2] deals with the molecule itself. As to the kind of experiment: SDS-PAGE of the purified protein (band at twice the expected size); purified fractions run on SDS-PAGE gels, strongly denaturing conditions; bands of the full-length protein identified by mass spectrometry (S1 Fig).

A word on the Ki: it is the equilibrium dissociation constant of an inhibitor or competing ligand from its target. Higher therefore signals weaker binding. As to `[O]=[V]([OH])([OH])[OH]` [vanadate], at Spf1p, the Ki was found to be 10.3 ± 0.747 µM.

B1: Saccharomyces cerevisiae P5A ATPase Spf1p (enzyme, UniProt P39986 1-1215, looked up)
chain: T1 sequence (P39986 1-1215)
notes: Spf1p, P5A-type ATPase of the endoplasmic reticulum, Saccharomyces cerevisiae, full length; The abstract speaks of a purified 'functional tagged version'; removal of the tag is not mentioned; also called full length Spf1p; full-length expression construct (Spf1p); not shown: FLAG, C-terminal, kept; RGS10His, C-terminal, kept
As usually defined, the Km is the concentration of substrate that gives half-maximal velocity. Consider B1, for which the Km in data set [1] was found to be 133.2 ± 18.9 µM. Also, the binding result in data set [2] is reported as “binds”.

The record behind these values is article PMC9584430, “ATP hydrolytic activity of purified Spf1p correlate with micellar lipid fluidity and is dependent on conserved residues in transmembrane helix M1” (PLoS ONE, 2022).
